The nature of this data set: label from the status in PepcDB records.
For “MDKVSIIIPVYNVQSFLNECIESVLAQTYSNLEIILVNDGSTDNSGDICDYYSEIDGRIFVFHKNNGGLSDARNYGISRATGDYIYLLDSDDYLYKEDAIERMVEFSEKYNSEIVLGCYVEKREQHIINIVLEDEMIETISPVQAIQNIYNYDAYRAIFTVAHNKLYKRELFSTLCYPVGKLHEDEFLTYKLYLKAKNIIFFRYNTYAYRIRENSIMTGSYNIKRLHAVEALKERIYLLEKYPDLVFQSERALIKTMEVNLIELYKNNFYKEFHTLKTEYKKTIFDFIKKQRMLLKIKYYLKYCVVHFKILNCKRKKKINKLEHHHHHH”, the protein production entry is “not failed”.

In the case of “MDKYLRLLSQGDRLGLTLIRLSIAIVFIWIGLLKFVPYEADSITPFVANSPFMSFFYEHPEEYRQHLTHEGELKPEERAWQTANNTYAFSDGLGVVELIIAALVLANPVSRWLGLAGGVLAFLTPFVTLSFLITTPEVWVMPLGDAHYGFPYLSGAGRLVLKDTLMLAGAVMIMADSARSLLLQRQ”, the protein production result was “failed”.

For the sequence “MDKYRLLLLGGGRGLFDIDEDFMHWIDEFIEEHSNSIEITIVTGKNKKLYDNLTHKKPLKNIKVLGFVNDMYNLIRECDLMLTKPGGATIFEAIQSQTPVLVKMPKVGQEIENAKFIIDKGLGMIYSDDLDLKNIFYKLVSNEFDSIINFMKKNLKEFKTVIHPEKIADYISELIDNHLEHHHHHH”, the protein production entry is recorded as “failed”.

As to “MDLDLRKLRYFVAVADRLHFGRAADALHIAQPALSRQIRALEQDLGASLFTRDSHGVTLTDAGRQLLDDAGPLLASAHAVRRRVSVAERGGRRLVVGFRAGIPVIPATRVFEAQHPDVVVDVQRMEWDDQASMLLDGRVDVAYVRLPLAETGLRLAPLYTEPLMVALPAGHRLAGKDEVTEADLAGEPLIWHADASRQPTRRPHPDSGLRVRGVEEKLEHVAAGRGISFVGRSEAVFFSRPDISYVPVPDLAPDQVCVAMAASRTSPLADSFFAAAQTTAEITAECGNYEMWRLASDAASKRD”, the protein production entry is recorded as “failed”.

For “MDLESVKKYLEGDEDEKAKEPMVAKLPHRFLERFVTNGLKVDLIEPGRIVCSMKIPPHLLNAGKFLHGGATATLVDLIGSAVIYTAGASHSGVSVEINVSYLDAAFLDEEIEIESKALRVGKAVAVVSVELRKKTTGKIIAQGRHTKYFAPRSNL”, the protein production result is recorded as “failed”.

Take “MDLKEIVQAGAFDLHIHTTASDGEYSPTAIVKKAKEIGLRTIAITDHDTLDGIEEAVIAGKRHGINVIPAIELTTKYKGTNVDILGYNVKASEKLQAILVQLKKHREGRAMQIIEKFNDIGFTITLDEVKQFSEDGVIARPHIAKAIVKKGYVLDYQTVFDEYLADGKPCAIDKMILTPEEGIKLIHEAGGKAILAHPVYLEDTLVRELLALDFDGIEVWHRNHDETDQEKYKMLATEFALIKTGGSDFHTDEHSLGQFGWKADEE”: the protein production result is given as “failed”.

As to “MDLLLFSDVHGDREACQRLVDRAADVDVVVGAGDFCVARRNLQAPIETLSAIDTPTVLVPGNAETEDELEAQIDAAGWGAAHVLHGGGTTIDGTPFFGLGGGVPVTPFGPWSYDLTEDEARTLLSDCPEGAVLVAHSPPKDAVDRDSKGQSLGSVAVREAIEAHTPRLTVCGHIHGSWEETAHVGPTPVHNAGPHGRIWTLSEADGA”, the protein production entry is given as “failed”.

Regarding “MDLPITLSKETPFEGEEITVSARVTNRGAAEAHNVPVAVYLGNPAQGGVEIGRDTISRIPVGGTGLARVQWKATRKLAGRAANPGVPVYAVVDPDNRVAESDKANLEHHHHHH”, the protein production entry is “not failed”.

Consider “MDLQGSVIKLQAAEAAGCKSPGRLLIIYLRPDAPRPQACASSVPAAMNRFKASKFRHMEARPSRREAWISDIRAGTTATCGNHIKSSCSLIAFNSDRPGVLGIISLEGHEENKRHVTYLGCHSDLVTDLDFSPFDDFLLASGSADRTIKLWRLSSTGEALPSVPGVVLGPEELPVDVLQFHPTADGVLVSTAGRTVKVWDVAKQQHLTELEAHKDLVQSAVWSRDGATVGTACKDKQLRIFDPRARAQASQSTQAHENNRDIRLAWTGIQEYLVSTGFNQMREREAKLWDTRVFSSALASITLDTSPGSLIPLLDPDSGLLVLAGKGENQLYCYEVTPQQPALSPVTQCILENALRGAALVPRQALAVMNCEVLQVLQLSDTAIIPISHRVPRKAVEFHEDLFPDTAGSVPASDAHTWWAGDNQQVQKVSLNPAHRPHPRFTSSLLPTLEPSPNMEQPAELPRADTELSEGFSSPSSLVSPSTPSSLGLSLSSTSGIGTSPSQRSLQSLLGPSSKFRHAEGTILHRDSHITNLKGLNLTTPGESDGFCANRLRVAVPLLSSGGQVAVLELQKPGRLPDTALPTLQNGAAVMDLVWDPFDPHRLAVAGEDARIRLWRVPPGGLKNVLTTPETVLTGHTEKIYSLRFHPLAADVLASSSYDLTIRIWDLQAGTEQLRLQGHQDQIFSLAWSPDGKQLATVCKDGRVRVYDPRSSPLPLQDGPGPEGGRGARIVWVCNGGCLLVSGFDSRSERQLQLYMADALAEGPSALLGLDVAPSTLLPSYDPDTGLVLLTGKGDTRVFLYEVIPEAPFFLECNSFTSPDPHKGFILLPKTECDIQDVEFARCLRLRQTSLEPVAFRLPRVRKEFFQDDVFPDTAVTWASALDAKAWFKGANGQPRLLSLQPPGMTPVSQAPREVPARRTPSSAQYLEEKSDQQKKEELLNAMVAKLGNREDPLPQDSFEGVDEDEWD”, for which the protein production entry was “failed”.

As to “MDLVAWETLSFPVVSAAFGASAFLIAVVGTRMTRAADRLADETGLGEAIFGAVLLGSTTSIAGITTSVTAAVDGLPSLAISNAIGGIAAQTVFLAVADMAYRPANLEHAAASVENLLQGALLSTLLAIPLLGMAGPRLDLFGIHPASVLLVAGYLYGIHLVAEARSTPYWVARQTDKTRQDTGAEGRESAALSTLWLEFVALSLVVGAAGYVIAKTGGQVAARTGLSEGLVGGLFTAVSTSLPELVTSVAAVRRGALTLAVGGIIGGNSFDVLFVAFSDVGYQEGSIYHAMTEQQVFIIALTLLLTGILLMGLLRRERRGAFGIGFESFLALVLYFGAFGLLFV”, the protein production result is “failed”.

On to “MDLVSLVERIGEAPTAALFGLITGITFGVAAQRSRFCLRAATVEFARGRMEDKVAVWLLTFSTALVWVQAAQLMGLMNGADARMMAVPGSWSGAIIGGLMFGAGMVLARGCSGRLLVLAATGNLRSVVSGLIFAVVAQMSLSGLLSPLRDKLAALWITEGGRNMNLLSTFGLPEYGGLVLGLVCAVLALVLARRHRIGAARLVFASGVGFAVALGWVLTYALSQVAFEPVQIESATFTGPSAHTLMFFLDRNAVLEFDVGLVPGVFIGAMIAAALAGEMKIQAFDGPVTMRKAMIGAALMGFGGMLAGGCAIGAGVTGGSIFVGTAWAALFFMWVGAMATDFLIDQRAASPRAA”, for which the protein production entry is “failed”.

“MDLYLDPSILIILIVFGFVAAFIDSVVGGGGLIALPALLFTGLNPASAVATNKLASTMGSATSNIVFYRSGNLNLKSAFKLVPLTFIGSIIGAWTVHLMNPEVLKPLMLIMLGAVAIYTIFKKDWGSISTHKKLSGRHVIIFTFFVFAIGFYDGFLGPGTGSFLMFSLLFIGYDFLKAAGNAKLLNLGSNVGALLMFMYVGQVNYAYGFIMGIAQIAGGIVGSKFAIKKGSGYVRALFITVTCLLLAKNLYDYIQ”: the protein production entry is reported as “failed”.

For the sequence “MDMQHRIRQLFQASIETKQQALEVLPPYIEQASLVMVNALLNEGKILSCGNGGSAGDAQHFSSELLNRFERERPSLPAVALTTDSSTITSIANDYSYNEVFSKQIRALGQPGDVLLAISTSGNSANVIQAIQAAHDREMLVVALTGRDGGGMASLLLPEDVEIRVPSKITARIQEVHLLAIHCLCDLIDRQLFGSEE”, the protein production entry is “not failed”.

As to “MDNFVVTFARGFGTGGKAIASQLAKELGIHCYENRILTLASQLSGLDENVFQEVNEKLREEGGFTSFLRGLPRAKGYISRNEKFKSDDRLFEYQSQIINELADKESCVIVGKCADYVLKNRPNVVSIYIEAPRAFCVERTITNMGVTPEVANATIERTDKFRADYYKYYTHGNYWTNPVNYDLTLNSERVGVENCVKTIEQYLIIKGFIKADMIKPAGELI”, the protein production entry is “failed”.

Consider “MDNIPDGDWYCYECVNKATNERKCIVCGGHRPSPVGKMIYCDLCPRAYHADCYIPPLLKVPRGKWYCHGCISRAPPPKKRSAGGTSGSSSKSRRDRDRESGGSAKRRSDNSKTPAMEHMQQQQMPLAGGDSHHHHHQQPPSLNSSHDESM”, for which the protein production result is “failed”.

In the case of “MDNLTHYLATTLRTLRHQRGWSLSRLAEISGVSKAMLGQIERNESSPTVATLWKIATGLNVPFSVFISPPQAEFPPTFDPQQQAMVITPLFPWDPELCFDYFSLLLAPGTVSESTPHKAGVIEHVVVIQGRLDMCTGGVWQTIDAGKGLRFAGDTAHTYRNSSDQTVHFHSLIHYPRD”, the protein production entry is “failed”.

For the origin of these results see a protein production outcome set (Wang et al. 2014).
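Note: failed if final PepcDB status was selected cloned or expressed and not failed if soluble or beyond.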
